Reference: patent US20140105889A1 (published 2014)
Numbering of substitutions follows the chain as printed.

T1: human FcγRIIa type R (human, UniProt P12318 36-217)
T1 construct: also called FcgRIIaR; FcγRIIa(R)
T1 chain: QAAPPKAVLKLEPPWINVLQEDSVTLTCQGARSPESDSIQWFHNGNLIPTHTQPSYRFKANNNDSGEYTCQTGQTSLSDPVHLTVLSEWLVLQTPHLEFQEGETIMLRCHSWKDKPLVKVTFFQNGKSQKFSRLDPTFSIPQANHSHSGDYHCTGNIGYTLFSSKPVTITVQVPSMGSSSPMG

T2: human FcγRIIb (human, UniProt P31994 43-217)
T2 construct: also called FcgRIIb; FcγIIB
T2 sequence: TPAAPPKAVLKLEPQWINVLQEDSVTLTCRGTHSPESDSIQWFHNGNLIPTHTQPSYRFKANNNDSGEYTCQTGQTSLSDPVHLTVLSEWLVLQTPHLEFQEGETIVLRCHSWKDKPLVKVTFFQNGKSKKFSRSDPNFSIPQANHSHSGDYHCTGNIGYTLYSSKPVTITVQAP

T3: human FcγRIIa type H (human, UniProt P12318 36-217)
T3 construct: also called FcgRIIaH; FcγRIIa(H)
T3 sequence: T1 chain with R133H

T4: human FcγRIIa type R (human, UniProt P12318 36-217)
T4 construct: also called FcγRIIaR; FcγRIIa(R)
T4 chain: T1 chain

T5: human FcγRIIa type H (human, UniProt P12318 36-217)
T5 construct: Whole entry named for FcγRIIa allotype H131 (AAH20823.1); also called FcγRIIaH; FcγRIIa(H)
T5 sequence: T1 chain with R133H

T6: human FcγRIIb (human, UniProt P31994 43-217)
T6 construct: also called FcγIIB
T6 sequence: T2 sequence

T7: human FcγRIIa type H (human, UniProt P12318 36-217)
T7 construct: also called FcgRIIaH; FcγRIIa(H)
T7 sequence: T1 chain with R133H

T8: human FcγRIIb (human, UniProt P31994 43-217, limits assumed)
T8 construct: also called FcgRIIb; FcγIIB
T8 sequence: T2 sequence

B1: IL6R-BP185/IL6R-L (antibody, human IgG1)
heavy: QVQLQESGPGLVKPSETLSLTCAVSGHSISHDHAWSWVRQPPGEGLEWIGFISYSGITNYNPSLQGRVTISRDNSKNTLYLQMNSLRAEDTAVYYCARSLARTTAMDYWGEGTLVTVSSASTKGPSVFPLAPSSKSTSGGTAALGCLVKDYFPEPVTVSWNSGALTSGVHTFPAVLQSSGLYSLSSVVTVPSSSLGTQTYICNVNHKPSNTKVDKKVEPKSCDKTHTCPPCPAPDYLGDDSVFLFPPKPKDTLMISRTPEVTCVVVDVSHEDGEVKFNWYVDGVEVHNAKTKPREEQYNSTYRVVSVLTVLHQDWLNGKEYKCKVSNAALPKPIEKTISKAKGQPREPQVYTLPPSRDELTKNQVSLTCLVKGFYPSDIAVEWESNGQPENNYKTTPPVLDSDGSFFLYSKLTVDKSRWQQGNVFSCSVMHEALHNHYTQESLSLSP
light: DIQMTQSPSSLSASVGDRVTITCRASQDISSYLNWYQQKPGKAPKLLIYYTSRLHSGVPSRFSGSGSGTDFTFTISSLQPEDIATYYCQQGNTLPYTFGQGTKVEIK
B2: IL6R-BP180/IL6R-L (antibody, human IgG1)
heavy: B1 heavy with D235E, Y236L, A328K
light: B1 light
B3: IL6R-BP179/IL6R-L (antibody, human IgG1)
heavy: B1 heavy with D235E, Y236L
light: B1 light
B4: IL6R-BP184/IL6R-L (antibody, human IgG1)
heavy: B1 heavy with Y236L, D239G, A328K
light: B1 light
B5: IL6R-BP186/IL6R-L (antibody, human IgG1)
heavy: B1 heavy with Y298D
light: B1 light
B6: IL6R-BP183/IL6R-L (antibody, human IgG1)
heavy: B1 heavy with D239G
light: B1 light
B7: IL6R-G1d/IL6R-L (antibody, human IgG1)
heavy: not shown
light: B1 light
notes: also called IgG1
B8: IL6R-BP112/IL6R-L (antibody, human IgG1)
heavy: B1 heavy with D235E, Y236L, D239G, A328K, K332A
light: B1 light
notes: copies: 2 + 2
B9: IL6R-BP117/IL6R-L (antibody, human IgG1)
heavy: B1 heavy with D235E, Y236L, D239G, G273P, A328D, K332A
light: B1 light
notes: copies: 2 + 2
B10: IL6R-BP120/IL6R-L (antibody, human IgG1)
heavy: B1 heavy with D235E, Y236L, D239G, G273P, A328E, K332A
light: B1 light
notes: copies: 2 + 2
B11: IL6R-BP202/IL6R-L (antibody, human IgG1)
heavy: B1 heavy with D235E, Y236L, K332R
light: B1 light
notes: The common L chain is IL6R-L; copies: 2 + 2
B12: IL6R-BP210/IL6R-L (antibody, human IgG1)
heavy: B1 heavy with D235E, Y236L, H270D, A328K, K332R
light: B1 light
notes: as for B11
B13: IL6R-BP205/IL6R-L (antibody, human IgG1)
heavy: B1 heavy with Y236L, D239G, Y298D, A328K, K332R
light: B1 light
notes: as for B11
B14: IL6R-BP200/IL6R-L (antibody)
heavy: B1 heavy with A328D, K332R
light: B1 light
notes: copies: 2 + 2
B15: IL6R-BP193/IL6R-L (antibody, human IgG1)
heavy: B1 heavy with Y236L, D239G, H270D, A328K
light: B1 light
notes: as for B11
B16: IL6R-BP204/IL6R-L (antibody, human IgG1)
heavy: B1 heavy with Y236L, D239G, K332R
light: B1 light
notes: as for B11
B17: IL6R-BP201/IL6R-L (antibody, human IgG1)
heavy: B1 heavy with Y236L, A328K, K332R
light: B1 light
notes: as for B11
B18: IL6R-BP214/IL6R-L (antibody)
heavy: B1 heavy with G273P, Y298D, A328D
light: B1 light
notes: copies: 2 + 2
B19: IL6R-BP188/IL6R-L (antibody, human IgG1)
heavy: B1 heavy with Y236L, H270D, A328K
light: B1 light
notes: as for B11

Biological target: T1, human FcγRIIa type R
Test: SPR (Biacore), FcγR over captured antibody; binding amount / that of IL6R-BF648/IL6R-L x100
Procedure: (§1) According to the following method, relative binding activities were calculated for the results of analyzing interactions with the respective FcγRs.

Row | relative binding activity | Binder
1 | 670 % of IL6R-BF648/IL6R-L | B1
2 | 602 % of IL6R-BF648/IL6R-L | B2
3 | 570 % of IL6R-BF648/IL6R-L | B3
4 | 436 % of IL6R-BF648/IL6R-L | B4
5 | 614 % of IL6R-BF648/IL6R-L | B5
6 | 423 % of IL6R-BF648/IL6R-L | B6
7 | 650 % of IL6R-BF648/IL6R-L | B7

What follows are binders tested against T9, human FcγRIa (human, UniProt P12314 16-292, limits assumed) in the same assay as above.
T9 construct: also called FcgRIa; CD64
T9 sequence (P12314 16-292 limits assumed): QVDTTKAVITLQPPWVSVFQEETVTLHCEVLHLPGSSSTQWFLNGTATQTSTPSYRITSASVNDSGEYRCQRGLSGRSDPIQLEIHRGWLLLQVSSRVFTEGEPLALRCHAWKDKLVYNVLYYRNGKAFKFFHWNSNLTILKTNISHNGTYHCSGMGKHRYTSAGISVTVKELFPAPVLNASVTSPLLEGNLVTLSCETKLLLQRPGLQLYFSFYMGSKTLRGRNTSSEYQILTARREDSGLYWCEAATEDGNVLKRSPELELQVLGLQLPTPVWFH
Procedure: as §1

Row | relative binding activity | Binder
8 | 47 % of IL6R-BF648/IL6R-L | B1
9 | 29 % of IL6R-BF648/IL6R-L | B2
10 | 39 % of IL6R-BF648/IL6R-L | B3
11 | 96 % of IL6R-BF648/IL6R-L | B4
12 | 43 % of IL6R-BF648/IL6R-L | B5
13 | 83 % of IL6R-BF648/IL6R-L | B6
14 | 140 % of IL6R-BF648/IL6R-L | B7

The binders below were run against T2, human FcγRIIb in the same assay as above.
Procedure: as §1

Row | relative binding activity | Binder
15 | 179 % of IL6R-BF648/IL6R-L | B1
16 | 179 % of IL6R-BF648/IL6R-L | B2
17 | 177 % of IL6R-BF648/IL6R-L | B3
18 | 171 % of IL6R-BF648/IL6R-L | B4
19 | 175 % of IL6R-BF648/IL6R-L | B5
20 | 164 % of IL6R-BF648/IL6R-L | B6
21 | 62 % of IL6R-BF648/IL6R-L | B7

Each binder was assayed against T10, human FcγRIIIa type V (human, UniProt P08637 17-208, limits assumed) in the same assay as above.
T10 construct: Allotype V158 was used; also called FcgRIIIaV; FcγRIIIa(V)
T10 sequence (P08637 other isoform, or with tags, fused parts or gaps limits assumed): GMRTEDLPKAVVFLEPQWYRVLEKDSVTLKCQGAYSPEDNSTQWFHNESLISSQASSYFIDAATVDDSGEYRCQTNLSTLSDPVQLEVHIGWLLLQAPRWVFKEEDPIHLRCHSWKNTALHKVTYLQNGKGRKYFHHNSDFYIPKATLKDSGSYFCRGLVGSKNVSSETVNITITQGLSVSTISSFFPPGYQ
Procedure: as §1

Row | relative binding activity | Binder
22 | 191 % of IL6R-BF648/IL6R-L | B1
23 | 100 % of IL6R-BF648/IL6R-L | B2
24 | 125 % of IL6R-BF648/IL6R-L | B3
25 | 106 % of IL6R-BF648/IL6R-L | B4
26 | 143 % of IL6R-BF648/IL6R-L | B5
27 | 113 % of IL6R-BF648/IL6R-L | B6
28 | 3350 % of IL6R-BF648/IL6R-L | B7

The binders below were run against T3, human FcγRIIa type H in the same assay as above.
Procedure: as §1

Row | relative binding activity | Binder
29 | 446 % of IL6R-BF648/IL6R-L | B1
30 | 203 % of IL6R-BF648/IL6R-L | B2
31 | 226 % of IL6R-BF648/IL6R-L | B3
32 | 131 % of IL6R-BF648/IL6R-L | B4
33 | 368 % of IL6R-BF648/IL6R-L | B5
34 | 191 % of IL6R-BF648/IL6R-L | B6
35 | 1670 % of IL6R-BF648/IL6R-L | B7

Biological target: T4, human FcγRIIa type R
Test: SPR (Biacore), FcγR over captured antibody; amount bound relative to IL6R-BF648/IL6R-L x100

Row | relative binding | Binder
36 | 340 relative value (IL6R-BF648/IL6R-L = 100) | B8
37 | 166 relative value (IL6R-BF648/IL6R-L = 100) | B9
38 | 175 relative value (IL6R-BF648/IL6R-L = 100) | B10

The binders below were run against T5, human FcγRIIa type H in the same assay as above.

Row | relative binding | Binder
39 | 113 relative value (IL6R-BF648/IL6R-L = 100) | B8
40 | 96 relative value (IL6R-BF648/IL6R-L = 100) | B9

These binders were tested against T11, human FcγRIa (human, UniProt P12314 16-292, limits assumed) in the same assay as above.
T11 construct: also called CD64
T11 sequence (P12314 16-292 limits assumed): as the sequence (P12314 16-292 limits assumed) above

Row | relative binding | Binder
41 | 119 relative value (IL6R-BF648/IL6R-L = 100) | B8
42 | 124 relative value (IL6R-BF648/IL6R-L = 100) | B9
43 | 125 relative value (IL6R-BF648/IL6R-L = 100) | B10

What follows are binders tested against T6, human FcγRIIb in the same assay as above.

Row | relative binding | Binder
44 | 157 relative value (IL6R-BF648/IL6R-L = 100) | B8
45 | 118 relative value (IL6R-BF648/IL6R-L = 100) | B9
46 | 114 relative value (IL6R-BF648/IL6R-L = 100) | B10

The binders below were run against T7, human FcγRIIa type H (assay: SPR (Biacore); binding amount divided by that of control IL6R-BF648/IL6R-L, x100).
Procedure: as §1

Row | relative binding activity | Binder
47 | 285 % of IL6R-BF648/IL6R-L | B11
48 | 279 % of IL6R-BF648/IL6R-L | B12
49 | 108 % of IL6R-BF648/IL6R-L | B13
50 | 517 % of IL6R-BF648/IL6R-L | B14
51 | 154 % of IL6R-BF648/IL6R-L | B15
52 | 137 % of IL6R-BF648/IL6R-L | B16
53 | 359 % of IL6R-BF648/IL6R-L | B17
54 | 285 % of IL6R-BF648/IL6R-L | B18

Each binder was assayed against T12, human FcγRIa (human, UniProt P12314 16-292, limits assumed) in the same assay as above.
T12 construct: also called FcgRIa; CD64
T12 sequence (P12314 16-292 limits assumed): as above
Procedure: as §1

Row | relative binding activity | Binder
55 | 43 % of IL6R-BF648/IL6R-L | B11
56 | 57 % of IL6R-BF648/IL6R-L | B12
57 | 97 % of IL6R-BF648/IL6R-L | B13
58 | 60 % of IL6R-BF648/IL6R-L | B14
59 | 113 % of IL6R-BF648/IL6R-L | B15
60 | 74 % of IL6R-BF648/IL6R-L | B19
61 | 110 % of IL6R-BF648/IL6R-L | B16
62 | 57 % of IL6R-BF648/IL6R-L | B17
63 | 36 % of IL6R-BF648/IL6R-L | B18

The binders below were run against T8, human FcγRIIb in the same assay as above.
Procedure: as §1

Row | relative binding activity | Binder
64 | 185 % of IL6R-BF648/IL6R-L | B11
65 | 187 % of IL6R-BF648/IL6R-L | B12
66 | 167 % of IL6R-BF648/IL6R-L | B13
67 | 188 % of IL6R-BF648/IL6R-L | B14
68 | 173 % of IL6R-BF648/IL6R-L | B15
69 | 179 % of IL6R-BF648/IL6R-L | B19
70 | 165 % of IL6R-BF648/IL6R-L | B16
71 | 186 % of IL6R-BF648/IL6R-L | B17
72 | 174 % of IL6R-BF648/IL6R-L | B18
